The source of these data is the nanobody polyreactivity screen of Harvey et al. (2022).

The data set is described as follows: yeast display, Sf9 membrane polyspecificity reagent, FACS + sequencing; frameworks hold sequencing errors. An outline of the steps:
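In a synthetic yeast display library (Saccharomyces cerevisiae BJ5465), nanobody expression was induced with galactose for 36–48 hours. FACS gates were set low and high (top ~1%) using anti-HA fluorescence for expression and streptavidin fluorescence for binding of the Sf9 membrane reagent. Each polyreactivity label is drawn from the gate of origin.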
In the case of “QVQLVESGGGLVQAGGSLRISCAASGNIFSYYAMGWYRQAPGKERELVAAISSGGSTYYADSVKGRFTISRDNGMNTVYLQMNSLKPEDTAVYYCNKLAYVGRYGYWGQGTEVTVSS”, the “polyreactivity (PSR sort gate)” value was “high polyreactivity”.

As to “QVQLVESGGGLVQAGGSLRISCAASGNIFVDYAMGWYTQAPGKERELVATITRTGDSTTYADSVKGRFTISRDNAKNTVYLQMNSLKPEDTAVYYCNTDLRLVYRTKGFISWGYDYWGQGTQVTVSS”, the “polyreactivity (PSR sort gate)” value was “low polyreactivity”.

Regarding “QVQLVESGGGLVQAGGSLRISCAASGPTFGYNGMGWYRQAPGKERELVAAINSGGNTNYADSVKGRFTISRDNAKYTVDFQLNSLKPEDTAVYYCAKYGTLYEPVPNEYDYWGQGTQVTVSS”, the “polyreactivity (PSR sort gate)” value was “low polyreactivity”.

With “QVQLVESGGGLVQAGGSLRISCAASGPTFPLYAMGGNRQAPGKERELVAAIRTGGSTNYADSVKGRFTISRDNAKNTVYLQMNSLKPEDTAVSYCAAVQRTDRSAHYSWGHGTQVTVSS”, the “polyreactivity (PSR sort gate)” value is listed as “low polyreactivity”.

For “QVQLVESGGGLVQAGGSLRISCAASGRIFAGYSMGWYRQAPGKERELVAAIRTRGGSTYYADSVKGRFTISRDKAKNTVYLQMNSLKPEDTEVYYCAATPTWYIWYTYDYWGQGPQVTVSS”, the “polyreactivity (PSR sort gate)” value is recorded as “high polyreactivity”.

As to “QVQLVESGGGLVQAGGSLRISCAASGRIFDTYVMGWYRQAPGKERELVAAISGSGGSTYYADSVKGRFTISRDNAKNTVYLQMNSLKPEDTAVYYCAAARRYYAYRYDYWGQGTQVTVSS”, the “polyreactivity (PSR sort gate)” value is “high polyreactivity”.

Take “QVQLVESGGGLVQAGGSLRISCAASGRIFGGYAMGWYRQAPGKERELVAAITSGARTKYADSVKGRFTISRDNAKNTVYLQMNSLKPEDTAVYYCAADGFYDGDYWGQGTQVTVSS”: the “polyreactivity (PSR sort gate)” value is “high polyreactivity”.

Regarding “QVQLVESGGGLVQAGGSLRISCAASGRIFGLYAMGWYRQAPGKERELVATINNSGGSTYYADSVKGRFTISRDNAKNTVYLEMKSLKPEDTAVYYCNAEFLYAASFIEYDYWGQVTQVTVSS”, the “polyreactivity (PSR sort gate)” value is “high polyreactivity”.

For the sequence “QVQLVESGGGLVQAGGSLRISCAASGRIFGTNAMGWYRQAPGKERELVADITSGGSTNYADSVKGRFTISRDNAKNTVYLQMNSLKPEDTAVYYCAAVVIGDLRWYRDEYWGQGTQVTVSS”, the “polyreactivity (PSR sort gate)” value is “low polyreactivity”.

“QVQLVESGGGLVQAGGSLRISCAASGRIFKYYGMGWYRQAPGKERELVAAITRGDSTNYADSVKGRFTISRDNAKNTVYLQMNSLKPEETAVYYCNVGTRRGYDYWGQGTQVTVSS”: the “polyreactivity (PSR sort gate)” value is given as “high polyreactivity”.

“QVQLVESGGGLVQAGGSLRISCAASGRIFNYYDMGWYRQAPGKERELVAAISWRGTSTRYADSVKGRFTISRDNAKNTVYLQMQSLKPEDTAVYYCAADDYARRFSFKYDYWGQGTQVTVSS”: the “polyreactivity (PSR sort gate)” value is recorded as “high polyreactivity”.

As for “QVQLVESGGGLVQAGGSLRISCAASGRIFRGYAMGWYRQAPGKEMELVAGITTSGGDTSYADSVKGRFTISRDNAKNTVYLQMNSLKPEDTAVYYCNASPFYYRPRYPMDYWGQGTQVTVSS”, the “polyreactivity (PSR sort gate)” value is on record as “high polyreactivity”.

Regarding “QVQLVESGGGLVQAGGSLRISCAASGRIFSYNAMGWYRQAPGKERELVASISRGGSTYADSVKGRFTISRDNAKNTVYLQMNRLQPADTAVYYCNAVHFSYEYDYWGQGTQVTVSS”, the “polyreactivity (PSR sort gate)” value is listed as “high polyreactivity”.

On to “QVQLVESGGGLVQAGGSLRISCAASGRIFTPNAMGWYRQAPGKERELVAAITWSGDNTYADSVKGRFTISRDNAKKTVYLHMNTLKPEDTAVYYCAAAYGYGHKKYGYWGQGTQVTVSS”, for which the “polyreactivity (PSR sort gate)” value is “low polyreactivity”.

On to “QVQLVESGGGLVQAGGSLRISCAASGRIFYNNDMAWYRQAPGKERELVAAITVRGSITYYADSVKGRFTISRDNAKTTVYLHMNSLKPEDTAVYYCATEWVNRLYSWGQGTQVTVSS”, for which the “polyreactivity (PSR sort gate)” value was “low polyreactivity”.

“QVQLVESGGGLVQAGGSLRISCAASGRIFYYYDMGWYRQAPGKERELVAAISRSGGRTYYADSVKGRFTISRDNANNTVYLHMNSLKPEDTAVYYCNVVRQGGTLGYDYWGQGTQVTVSS”: the “polyreactivity (PSR sort gate)” value is given as “high polyreactivity”.
